Laboratory results as given in patent publication US20090136500A1 (CISTHERA, published 2009).

Columns and labels:
[1] = target: T1, mouse PAI-1 (mouse, UniProt P22777 23-402, limits assumed, n-terminal biotin label (in the P-ELISA)); assay: P-ELISA
T1 construct: also called murine PAI-1
T1 sequence (looked up): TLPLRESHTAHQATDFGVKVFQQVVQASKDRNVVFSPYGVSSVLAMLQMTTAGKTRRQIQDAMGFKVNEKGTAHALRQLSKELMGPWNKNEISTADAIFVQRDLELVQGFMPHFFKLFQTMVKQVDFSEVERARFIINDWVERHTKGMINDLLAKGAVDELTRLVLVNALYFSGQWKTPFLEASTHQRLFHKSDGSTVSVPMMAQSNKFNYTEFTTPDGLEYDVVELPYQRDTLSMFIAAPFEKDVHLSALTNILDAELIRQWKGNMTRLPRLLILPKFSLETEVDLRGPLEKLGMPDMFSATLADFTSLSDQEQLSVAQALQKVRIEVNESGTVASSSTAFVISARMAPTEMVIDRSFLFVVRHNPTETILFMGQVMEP

[2] = target: T2, PAI-1 (antigen of Example 11, species not stated); assay: SPR-type biosensor, antibody captured on anti-human IgG surface at 5 densities, 25 C, global 1:1 fit
T2 construct: Its method text reads as if hP-1 and mP-1 were the antigens run over captured antibody, that is human and mouse PAI-1
T2 sequence (P05121 24-402): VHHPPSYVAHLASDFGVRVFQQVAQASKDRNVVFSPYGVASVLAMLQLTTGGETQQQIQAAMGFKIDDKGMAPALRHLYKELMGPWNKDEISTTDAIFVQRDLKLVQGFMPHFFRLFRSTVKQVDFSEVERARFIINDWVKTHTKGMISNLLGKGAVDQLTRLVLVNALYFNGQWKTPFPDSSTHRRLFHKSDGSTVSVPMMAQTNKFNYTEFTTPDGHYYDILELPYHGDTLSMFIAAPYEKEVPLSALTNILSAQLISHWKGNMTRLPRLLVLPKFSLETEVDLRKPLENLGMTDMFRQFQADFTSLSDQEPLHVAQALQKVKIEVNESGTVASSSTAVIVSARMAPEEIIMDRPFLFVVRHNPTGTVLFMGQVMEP
Method: This experiment was conducted to measure the binding constants for hP-1 (humanized mAb CT140) and mP-1 (mouse antibody 33B8).
hP-1 was captured onto an anti-human IgG surface (Cat-tag goat mAb) at 5 different surface densities. hP-1 and mP-1 were diluted to a starting concentration of 100 nM and tested in a 3-fold dilution series using PBS with 0.005% Tween-20 and 0.1 mg/ml BSA. Binding data were collected at 25° C. The association phase was monitored for 5 minutes and the dissociation phase was monitored for 2.5 hours. The response data for each antigen over the 5 different density mAb surfaces were globally fit to a simple 1:1 interaction model. A fit to the data was determined (data not shown) a binding constants were determined at 25° C.

[3] = target: T3, rat PAI-1 (rat, UniProt P20961 24-402, n-terminal biotin label (in the P-ELISA)); assay: P-ELISA: biotin-labeled PAI-1 on streptavidin/Neutravidin coated wells, HRP-conjugated secondary antibody, O.D. 450. Target taken from the title printed in the panel; the legend paragraph 67 names FIG. 12C as mouse
T3 sequence (looked up): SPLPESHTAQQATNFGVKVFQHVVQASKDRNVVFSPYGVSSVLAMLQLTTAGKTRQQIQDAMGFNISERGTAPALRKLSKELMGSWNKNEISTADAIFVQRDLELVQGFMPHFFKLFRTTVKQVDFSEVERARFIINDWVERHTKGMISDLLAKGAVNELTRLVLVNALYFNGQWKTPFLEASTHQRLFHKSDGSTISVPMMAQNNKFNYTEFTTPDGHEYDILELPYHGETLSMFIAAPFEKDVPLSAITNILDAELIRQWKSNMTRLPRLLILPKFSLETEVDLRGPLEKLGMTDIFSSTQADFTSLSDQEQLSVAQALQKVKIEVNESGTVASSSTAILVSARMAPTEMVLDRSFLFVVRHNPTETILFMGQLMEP
Method: All reagents are brought to room temperature (18-23° C.) and dilutions are made in Wash Buffer (1×TBS, 0.1% BSA, 0.05% Tween). Briefly, protocol steps are as follows: [0546] Add 100 μL of Neutravidin™ Pierce#31000 (0.5 μg/ml in TBS) to 96-well Immulon-4 plates. Incubate 1 hour at room temperature (RT). [0547] Wash wells 3 times with 200 μl Wash Buffer. [0548] Add 50 μL of biotinylated biomolecule (0.06 nM) Incubate 1 hour at RT. [0549] Wash plate 3 times in Wash Buffer. [0550] Add 100 μL of 1° Ab Incubate 30 min RT [0551] Wash plate 3 times in Wash Buffer. [0552] Add 50 μL of […] (1:10,000) Incubate 30 min RT [0553] Wash plate 4 times in Wash Buffer. [0554] Add 100 μl TMB Reagent (substrate). Incubate at room temperature. [0555] Add 100 μL of 2 M Sulfuric Acid to stop development of the substrate. [0556] Plates were read using a […] filter with a 615-620 nm filter as the reference.
Binding of CT140 to rat, mouse, rabbit and human PAI-1 was determined by P-ELISA (see FIG. 12). The relative affinity of CT140 is human=rabbit>mouse>rat (FIG. 12A, FIG. 12B, FIG. 12C and FIG. 12D, respectively).

B1: CT140 (humanized version of murine monoclonal antibody 33B8, IgG4 with the hinge of IgG1) (antibody, V domains shown)
VH: QVQLVQSGAEVKKPGASVKVSCKASGYTFTNYGMNWVRQAPGQGLEWMGWINTYTGEPTYTDDFKGRFTMTLDTSISTAYMELSRLRSDDTAVYYCAKDVSGFVFDYWGQGTLVTVSS
VL: DIVMTQSPDSLAVSLGERATINCKSSQSLLNIIKQKNCLAWYQQKPGQPPKLLIYWASTRESGVPDRFSGSGSGTDFTLTISSLQAEDVAVYYCQQYYSYPYTFGQGTKLEIKR
notes: also called hP-1; humanized mAb CT140
For B1, the “fold greater affinity relative to the parent mouse anti-PAI-1” value [1] was over 10 fold, the Kd [2] was 0.015 nM and the koff [2] was 8e-06 s⁻¹. The kon [2] was 530000 M⁻¹ s⁻¹ and the binding result [3] was “binds”.
